The data set can be described thus: soluble on expression in E. coli; label from the status in PepcDB or PDB records.
Regarding “MSLGSSDLPAHALVGYLHASFANGSGYTRMADVPDSWDVIDLAFGEPTSVTSGDIRFERCPVAECPNVESDAEFKAAIKAKQAAGKKVLISIGGQNGQVQLTSTAARDKFVSSVSAIIDEYGLDGLDIDFEGHSLSLNADDTDFKNPKTPVIVNLVSAVKTLKAKYGDGFVLTMAPETFFVQLGYQYYGTGKWGGQDPRAGAYLPVIHALRDDLTLLHVQDYNSGSIMGLDNQYHSMGGADFHIAMTDMLLTGFPVAGDANNVFPPLRPDQVAIGMPASTQAGNGHVSPAEVTKALNCLTKKTDCGSYATHGTWPDLRGLMTWSINWDRYSNWEFQKNFDAYFGEGHHHHHH”, the “soluble on expression in E. coli” value was “soluble”.
For “MGSDKIHHHHHHMMRNIAICSNEVENLILGQDSVKTIDMNGILVRCGLLRTENIYFDRNAVSNRFKVLVKKKAFSCNYRDKSIIFRITKQAPENTFYVVGSDFVGEVIATGSEVTELKVGDRVIANNAYPESDALEAFPGIPSNHASKEYQVFHQAKLIKIPLEMSDEIAAAFSIGGQTSYSIVRKFNPTKGSNILVTAAKSNTSLFVINALKKYDVNIYATSTSRLFEEELRAMGVKKVILVESKPNSLLENQSIQNIVAETGGFDCVFDPFFDLYLGQSVELMKIGAKYITCGLYDQYFELINQSFTPFSLNTNHIMGSVMTKNLQIIGNCLGLTEDLKNAIQDYALGHLNVVIDSVFTGKDIEGFFERTYNAKDRFGKVVYKYE”, the “soluble on expression in E. coli” value was “not soluble”.
“MEEVKDDKTYKGFVDRLTLGITRVLENLPGVLDVRFVEKAPAEKRCLLSWEQKNNCALPEDLRDFYLTTDGFMLAWNSKLENEVVPVGCMMINNVAQLRPLIQSNVYCLPNAPTLADLDFDDDIDGSDGPEKPHFDLRSRIFELDSCNGNGKVCLVYKSCSPGVMAQQCEVWFLDRSLFWHYLTPSFTAYYRLMITHLGLPEWQYNFTPYGPSPQAKQWAALYQPLTFHSDPHLDTSSEPFLNKLDPTKAFRGKAKPPTPKKKQPAQVPASGTGTAKGQGLSGRHSVAKR”: the “soluble on expression in E. coli” value was “soluble”.
For the sequence “MLRRQMSFNGKSDMGILYLVPTPIGNLEDMTFRAIDTLKSVDAIAAEDTRQTKKLCHVYEIETPLVSYHEHNKESSGHKIIEWLKSGKNIALVSDAGLPTISDPGAEIVKDFTDIGGYVVPLPGANAALTALIASGIVPQPFFFYGFLNRQKKEKKKELEALKKRQETIIFYEAPHRLKETLSAMAEILGDREIAVTRELTKKYEEFIRGTISEVIGWANEDQIRGEFCLVVEGSNNEEVDEEEQWWETLTAKEHVEHYISKGATSKEAIKKAAVDRNVPKREVYDAYHIKQ”, the “soluble on expression in E. coli” value was “soluble”.
For “MNRSNAQTERGRRWYVGDRLHVDVRGLPCPEPLVTVLRLIDGSEVGDGLTALVSQEPLLLYPELDARGCRYRMVTPAGDTLLRDGEVVLEIERSK” the value was “not soluble”; for “MKSYIVIGAGILGASTAYHLAKEGASVMIIDRGDKGQATDAAAGIVCPWLSQRRNQKWYRLAKGGAKFYPSLIEELESYGETETGYARVGALWLHTDEQKLEQMEERALKRREDAPEMGEIVRLHPQEAKELFPPLVGEHHALYVSGAARVNGRAVRDALMNASQKRGAAYIRGNARLLFEGSRIIGVEADGTKYAAEAVIVTAGAWAGELLEPLGIKLLVTPQKGQLIHLEHPECDTSHWPVVMPPNNQYMLAFPGSRIVIGTTHEDEAGMDIRPTAGGMHELLDKALAVAPGLSTWTYIETRVGFRPRTPGFLPIFGPLPGFSGVYIANGLGSSGLTVGPYLGKELAKLVIGLPTELDPSDYDVASAVAPIVQ”, “not soluble”; for “MGSDKIHHHHHHMTQSSLDPATVELTADQQQAAEAFSSWLDDANHGNPFVLSGFAGSGKTFLSMRLLRQVEDAGLCWTVVAPTHKAVGVLRQALDLEGLRPTWYPSTIHRLLRLKLKRQGDLELCESTEQTAQSLEQLGLVLIDESSMIDSTLLGLALQCAHPFRTRLVFVGDPAQLPPIGEAQSPVFSMHRACTATLQQVVRHQGPVLRLASRLRDGSLPCQSPPCFPLIEDELGRVGCMDQNNWLKRAQAALQSAAIQDNPDAARILCYTNRSLEQLVPHARRAIHGDMADQLPVLPGEVLIARKAVMAPASRSGAETGEEPDMVLGSNREVVVRDVTPERCDLAEFGLEGQSDWSVPVVDTLTAKVRAGELDLELRLQPPVGSEGRRLLDTTLQRLRVEAKAAGKSDGRSLWRRFFLLRDAFASLGPAAVLTVHRSQGSSFGEVFVAGDVFWPQDLSLRRQLVYVAVSRARTGVWLVGKTGAAAQSRWLDQLRSQSSDR”, “not soluble”.
For “MAGDPMLTAPPKEAARPTLMPRAQSYKDLTHLPAPTGKIFVSVYNIQDETGQFKPYPASNFSTAVPQSATAMLVTALKDSRWFIPLERQGLQNLLNERKIIRAAQENGTVAINNRIPLQSLTAANIMVEGSIIGYESNVKSGGVGARYFGIGADTQYQLDQIAVNLRVVNVSTGEILSSVNTSKTILSYEVQAGVFRFIDYQRLLEGEVGYTSNEPVMLCLMSAIETGVIFLINDGIDRGLWDLQNKAERQNDILVKYRHMSVPPESLEHHHHHH”, the “soluble on expression in E. coli” value is recorded as “not soluble”.
Regarding “MGSDKIHHHHHHMRRRVPLNSVRAFEAAARRMSLVQASDELCVTPTAVSHQIRQLEDFLQTKLFLRRSSRLELTPESRACLAKLTEALDIIDDAIAALHKPMDMPERLVVGASASVGSLWLMPRLRNFYRTAPEIDISLTTFIERSAIETDTSDVWICNWHTNLDRRVELLLEEDIIPVCSPQMAEEFGELSFDSLRELPLVHVDRAKASINGQYPDWDRYLREYGISRNDIAKGPRFNQAGPAIEAAKAGMGALLGRSILIERALETGELIRLGDPYPIRNPYYLISPLQPASNAVKMFKDWIFAQAKTRTSTYVELPHKNRRGSDFRLTV”, the “soluble on expression in E. coli” value is on record as “not soluble”.
Take “MIGYFIITGFAAATLALSTCNLKKVRKPPPATPAKPPAPQKTLKVAPRAAPPRKKKEIFLEEHTPPSTDTDEVSTIPPAEQIRIVENHRRRIGVRPRAGNRVYKKTPSSELVKVENKKSVEKNCKVVKTESGEAEACEKKEDKRNVEKNKKKEKESKEKSKNCYEKKELKKNGSESYAYKKYNKQKNEHIEILVKKTVLRQIRF”: the “soluble on expression in E. coli” value is given as “not soluble”.
For the sequence “MGSDKIHHHHHHMTKNNIAVKVDHVSKYFKLPVESTQSLRTALVNRFKGIKGYKKQHVLRDIDFEVEKGDFFGIVGRNGSGKSTLLKIISQIYVPEQGKVTVDGKLVSFIELGVGFNPELTGRENVYMNGAMLGFTTEEVDTMYQDIVDFAELQDFMNQKLKNYSSGMQVRLAFSVAIKAQGDVLILDEVLAVGDEAFQRKCNDYFLERKNSGKTTILVTHDMAAVKKYCNKAVLIDDGLIKAIGEPFDVANQYSLDNTDQIVEDKQEEEAAVQEEEQIVVDNLEVKLLSANRMTPRDSIRFEISYNVLADVGTYIALSLTDVDRNIWIYNDNSLDYLSSGSGKKRVFYECHLKSLNDIKLKLEVTVRDKQGQMLAFSSATNTPIISINRDDLEGDDKSAMDSASGLIQRNGQWQFS”, the “soluble on expression in E. coli” value is listed as “not soluble”.
For “GTEVEIPVVHDPKGEAVLPSVFEDGTRQGWDWAGESGVKTALTIEEANGSNALSWEFGYPEVKPSDNWATAPRLDFWKSDLVRGENDYVTFDFYLDPVRATEGAMNINLVFQPPTNGYWVQAPKTYTINFDELEEANQVNGLYHYEVKINVRDITNIQDDTLLRNMMIIFADVESDFAGRVFVDNVRFEGA” the value was “soluble”; for “MVEQTTSEPAAGSMPKISFGVKKREENKVQAPAKAVVIEVDLDSDEEREKNEMERAAKRRKVMHFEDGTVQGDIDKPKEAAVIPMVVEHDWRTQKLIEKEKAGTLTEEERAKLALVLPNGIDGENEEESGKGEKIVVEDGRGDTEDADYSAIPIESFGLAILRGCNWKDGDGIGKNPQKVALKLPNRRPPGLGLGATPKNPVGKNKNTGESSKAEEEKLEEIKVGSFIKVVDGRNKGVYGKVEGRDDDSNSLFIRTAIGGKTMKVSQIVAVAVSAKEYERDSKCLNKSEYDKEKDRLETERKKLESQPPSTSTSQSSKDYKSKSSSSKHDKNSSEYERNDKMWARTDLLVRFIDEDFKRGSLYEQKVRIVDVAGDNDVTIEDDRGNTHYNIRQSWLETVIPREIGEKLMIVAGKRSGQLAVMLDKDKRKEKVTARLVATNDVVTAYFEDVCSVKIRHEEDYE”, “not soluble”; for “AEVLLGSSDGGLAFVPSDLSIASGEKITFKNNAGFPHNDLFDKKEVPAGVDVTKISMPEEDLLNAPGEEYSVTLTEKGTYKFYCAPHAGAGMVGKVTVN”, “soluble”.
For “MFVRFASAQSVPPGDIQTQPGTKIVFNAPYDDKHTYHIKVINSSARRIGYGIKTTNIKRLGVDPPCGVLDPKEAVLLAVSCDAFAFGQEDTNNDRITVEWTNTPDGAAKQFRREWFQGDGMVRRKNLPIEYNP”, the “soluble on expression in E. coli” value is on record as “soluble”.
On to “MGSDKIHHHHHHMTTLGIDHPLVCVRDLAAKRATYQSLGFLMKPPGMHPWGTSTALVIFRNQLLELVSIEDESLLDGYAAGSFRFGRHVEAWLAEREGVCLSALNSMDAEADEAAVLARGGSCAGTVEFGRDVVRDDGTPDRTKTTLKIFPHAGLPRLSMFACQQHRRDLIEFPDWMDHPNGAHGFASATILAAPSDQGRVRDWLSVLHGADAVRDTDWGFEVATTNGRWRVVSRATAPALLGKLPDGLASDGAPSVISLDIRCHALSQLRPFVEAGEFVCQDVNGALVLTEVARLGGILLSFHEIPKV”, for which the “soluble on expression in E. coli” value is on record as “not soluble”.
For “MIKMTQSRLHAAQNALAKLHEHRGNTFYPHFHLAPPAGWMNDPNGLIWFNDRYHAFYQHHPMSEHWGPMHWGHATSDDMIHWQHEPIALALGDDNDKDGCFSGSAVDDNGVLSLIYTGHVWLDGAGNDDAIREVQCLATSRDGIHFEKQGVILTPPEGIMHFRDPKVWREADTWWMVVGAKDPGNTGQILLYRGSSLREWAFDRVLAHADAGESYMWECPDFFSLGDQHYLMFSPQGMNAEGYSYRNRFQSGVIPGMWSPGRLFAQSGHFTELDNGHDFYAPQSFLAKDGRRIVIGWMDMWESPMPSKREGWAGCMTLARELSESNGKLLQRPVHEAESLRQQHQSVSPRRISNKYVLQENAQAVEIQLQWALKNSDAEHYGLQLGTGMRLYIDNQSERLILWRYYPHENLDGYRSIPLPQRDTLALRIFIDTSSVEVFINDGEAVMSSRIYPQPEERELSLYASHGVAVLQHGALWLLGLEHHHHHH” the value was “soluble”.
Turning to “MLEAKNLTCIRDDRCLFQQLSFCIAPGEIVQIEGPNGAGKTSLLRILAGLAEADEGQVNWRDKNIRRDRAKYHQDLLFLGHQPGIKSVLTPFENLLFYQSVFQKVDSAAIWQALAQVGLVGYEDLPVSQLSAGQQRRVALARLWLSPAPLWILDEPLTAIDKQGVSTLLALFVQHAAKGGMVLLTTHQDLGAVSHNVRKICLANTQEKSCLSACCAVN”, the “soluble on expression in E. coli” value was “not soluble”.
With “MKIAVLGATGRAGSAIVAEARRRGHEVLAVVRDPQKAADRLGATVATLVKEPLVLTEADLDSVDAVVDALSVPWGSGRGYLHLDFATHLVSLLRNSDTLAVFILGSASLAMPGADHPMILDFPESAASQPWYDGALYQYYEYQFLQMNANVNWIGISPSEAFPSGPATSYVAGKDTLLVGEDGQSHITTGNMALAILDQLEHPTAIRDRIVVRDADLEHHHHHH”, the “soluble on expression in E. coli” value is recorded as “soluble”.
For “MAHHHHHHMDPSAFGMMAGRGMGRQTEVRDARDTAETIQISSIALLKMLIHGRAGVPLEVMGLMIGEEIDDYTIRVADVFSMPQTATGQSVEAVDPEYQVHMLDKLKLVGRHENVVGWYHSHPGFGCWLSSEDVMTAAGYENLTPRSVSVVVDPIQSVRGKVVIDAFRTIPQEIMAMRAMGEYVEPRQVTSNIGFLSKPSAVALSHNLNRQYYNLPVTFRKKNHELRLLLNVYRKGWQEGFKLEKAKVYQRETRTSIRELISLSKQAEKYITQGRDEDDLGNVGQINAMSHLQMEAENVIHRNLNQSIGAMINAVVF” the value was “not soluble”.

The record behind these values is the DeepSol protein solubility set.
